From article PMC3440409

Tests used:
Settings in all cases: 1 mM MgCl2, 0.5 mM EDTA, 0.5 mM DTT, 50 mM NaCl, 10 mM Tris-HCl pH 7.5, 0.05 mg/ml poly(dI-dC), 10 ul, room temperature 30 min; footprinting in same buffer …
[1] = molecular target: T1, His-AphA (Vibrio parahaemolyticus RIMD 2210633) (UniProt Q87L53); assay: EMSA
T1 sequence: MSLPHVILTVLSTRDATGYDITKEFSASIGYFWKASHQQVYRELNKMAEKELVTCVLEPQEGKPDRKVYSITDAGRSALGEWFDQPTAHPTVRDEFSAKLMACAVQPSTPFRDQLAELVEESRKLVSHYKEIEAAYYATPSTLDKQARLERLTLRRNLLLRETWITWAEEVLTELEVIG

[2] = molecular target: T1, His-AphA (Vibrio parahaemolyticus RIMD 2210633); assay: competition
[3] = molecular target: T1, His-AphA (Vibrio parahaemolyticus RIMD 2210633); assay: DNase I footprinting

Sequence	binding [1]	binding [2]	binding [3]
AACTTCCAACCACATAATTGCGCAGCAAATAACCAGACATTTACACTACAAAAAACCCATAAAATACCAACAAATTAGAATTATTAACTACAAAATAACTCTATTGAGTATTATGTTAGTTTTTCAGGGTAATTTTGTCCTAGTATTCCACTTCATGCTTATTATTTATATACTACTTGCCTGCTGAGAGCTCATAAATCCAATCATACCTGCTCCAGCC (double strand) [aphA promoter fragment]	binds	binds	binds
AGTGGGTTGAAAGTCACATCCTTTTGCGGAAAATTCTTGGGAGCGCTGCCAAATTTTCGAAAGTTTACAGCAAAACTTATCAATAATAATGACATTACTGTCTATAAATTATCCATCAGATGTTGACCTTGTGCATATGCACCATTACACTCATCACTGCTTAAAGCAATTATTAAAATAATCAATTAGGGGGTTACCCCCAACAACAACTCAAATGGCAAGGAAAATGGATATGGACTCAATTGCAAAGAGACCTAGAACTAGGC (double strand) [opaR promoter fragment (footprinting)]			binds
AGTGGTTGCTTATGAATCAATCCCAGGAAAAGGCGAGAACAGCGAACCTTCAACTCGTTAACATTTTATTTTCATTTACATTTTGACTAACTCAATTGTTAATAAATTACCTAAATTGCATTTTGAAATTGCAGAATGCAATTAAGTTTTGTTTTTTGCAAAAATTTATATAGGCAATATCAGTTTATATGAGATCTTGTGCCCAAAAATAAAGCTTTGAAAATTGGCATGATTAATGCATAATACTTCTCGACC (double strand) [qrr2 promoter fragment]	no binding		
CGACGCATTATTAACCAGCACTTTCGCAAATTGCATTTGCAAAATGCAATAGCATGCAAATATGCCACTTGTTACATTGCTACTAATCACTTTCTCAGCAAAAAACCAACTACTACTTTATGATTATCCATTAGCTTTCATATTTTTACCCTATACTGCTAATTAATGAGGAAAAATACCTCAGTAAATGGATTTCACGGTT (double strand) [qrr4 promoter fragment]	binds		binds
GGATAAGTTCAAATTGGATCCAGCCTTAGCAGGCTCGGTTATTCTAACGACAGTGACAGATGTGGTTGGTTTTTTCGCCTTTTTGGGAACGGCGAGTTTAGTCATGCTCTAAAAAGTCCACTGTTTATTAATCAATCATTAGCATAATAGAGACAAATTGCATAACGCACTTGCAAATTGCAAAAACATTCAAAGTTTAAGCAACGTATGTCACAGAAACCAC (double strand) [qrr3 promoter fragment]	no binding		
